Test results reported in the DeepSol protein solubility set.

Assay: soluble on expression in E. coli; label from the status in PepcDB or PDB records
In the case of “MHIHILGICGTFMGGVAMLARQLGHKVTGSDANVYPPMSTMLEAQGIEIIEGFDPVQLEPKPDLVVIGNAMSRGNPCVEYVLNHNLRYTSGPQWLQDFLLHDRWVIAVSGTHGKTTTSSMIAWVLEHCGYQPGFLVGGVLGNFGISARLGESMFFVVEADEYDSAFFDKRSKFVHYHPRTLVMNNLEFDHADIFDNLEAIKRQFHHLVRTVPGNGRILAPKQDEALADVLQRGCWSETEFSGEQGEWQAEKITADGSQFHVLLKGERVGQVNWSLVGDHNVSNALMAIAAARHVGVAPELACEALGLFVNTKRRLELKGEINGVTVYDDFAHHPTAIELTLGGLRNKVGDKKIIAVLEPRSATMKLGVHKETLAASLHSADSVYLYQPSNIPWSVEEVAKQCQQPAQVSANMDEFVAMIAKEAQAGDQILVMSNGGFEGIHGKLLAALQQK”, the “soluble on expression in E. coli” value is reported as “not soluble”. In the case of “MHIRTTTPVLTSLTSCNFGTASLGDTSPYCMALRPFPLGNTPLHAVIRRSAREFECVEAVPASNAVRSPSTASWVSAESLDSIISLANRTSEEMEVDQLIYRLCRSLYHVAKKKSAQIHCHPNHQERQQQQQQASSSGWRSVECEGHFSNMRGREDWCPLLHLFDPRSYYKVMGQPSQHDGCKLCGDVVGTESSPEGVSQWLMSELSVTRLTGGNSNHVYRLGHASFPKKAVLLRVYGDGGGGDVIDRARDIKVMRLMSKSEMGPGLLHTFHWGRVEEFMDGVLTCTTEKLLTSPSLLADVYGGLSKMHQLDYTPLLPENMRTKGMSNGHNSSQSVSDTVSKSGGGQEGPDGTVGGVNELESTCHTSFERVCLRLLRLVSLNVVEEHRHSLESWLAGEVMFVRRELQYRGIPVVLSHNDLNPGNILLSDGAGEASGTVFSDEELRVENTPLSKRYVTRKGKNMNLVERRGFLFIDFEYADANYRCFDLGNTLCELDYDYTRGTEAGGRGFIKYLFVFPPPAMEEAWRGLGEEYPRMPELIYDAWRRGVCDGSSDIGSVALLAVRRYFAERDNVPLETVELSEAQVGEVLLGMLASHLYWTIWSMTMGSAPDNCVECEDCDDQMFAVGGSGLDYMRYGECRLREYIALRGWLAEKGLLS”, the “soluble on expression in E. coli” value is reported as “not soluble”. For “MHLLPELASHHAVSIPELLVSRDERQARQHAWLKHHPVPLVSFTVVAPGPIKDSEVTRRIFNHRVTALRALATKQGWQIQEQAALVSASGPEGMLSIAAPARDLKLATIELEHSHPLGRLWDIDVLTPEGEILSRRDYSLRLAAACCASKAQPSARVEKPIN”, the “soluble on expression in E. coli” value was “not soluble”. In the case of “MHMSQSTQRAYQEVLDWLEKELRKGSIAIGDKLPGERALAEQFELSRASVREAIRILTSMGLVRTGTGSGPHSGAIVISEPSAGLSWAIRMHLSARSLPLKDLVNTCILIESNAAADAATPKISPDSPERSHVLNEAHRLLDSMDDPTLPFHDYHIKDVNFHILITSLAGNLVTETIMESLRYSAIAFVIERLAMRTDWAEVSEKLQREHRNILRAIEERNPDKARTLVHDHIADFYELTSH”, the “soluble on expression in E. coli” value is reported as “not soluble”. In the case of “MHNSSSSTIGKPLIPQKLPEFLNAYENFIIAGHKEPDGDCIGSCLAMSFFLKRKNKNCILMSAGPFKRTEIKEYEHLFTDKLKISDKINPKTTGLIILDCSNFDRVGEIAELISGFNYIIIDHHATNTEKSDTSLIMPEAPSTTYLIQSIIEEIGEKLTKEEADALFFGLCTDTGFFRHLDAGSAEVFAHASRLIEAGANPKQTFMKINGGKKFESRLLISRILNRMKTYYDGRLVVSYETYDDLLEFGLESRDSDILYQLIQSIEGVEAICIVRQDSPSHCSVGFRSLDKIDVSKIAASFGGGGHKQASGLYIEGKFDDLIPRFVEAFGTQMLEHHHHHH”, the “soluble on expression in E. coli” value is reported as “soluble”. With “MHRCGESSVAGTDARIRLEGNRLFVGGPVTYDNVVEVIRTGDAAIKADDMLIDLAGVTWVDSSAVSMLLEWMRTAQTYDRRIEFINLPSNLADLIELYDVGSLIPTDKPAESV” the “soluble on expression in E. coli” value was “not soluble”. For “MHSYHNPGVPTALSIFEPLQDGSTISVHGHVRHGHHKNFAVELLSGPNVVLHVNFRFHHEHVVVMNSQFSGMWGPEIRHKNPLHHSEHFHLSIKVHAGYYHISVNGHHLADYPHRYPYQSVQAIGLKGDVHVDKVHFEGFHFQRRWDGHVDHGHSGYNAYGTETYVAPVFVQPNFMPYGAPPPPVQNFNPYR”, the “soluble on expression in E. coli” value was “not soluble”. For “MHTTSSPNETLSSWDSSARREQASKNNIYVTLSAKQHPRILQIYGGAYYNPKLERLLENIVRKLTVGLQNSYKSYSLTILNTQSVNAFALPNGSIYITRGMLTLANDSSEVAAILAHEIAHITANHGILRLQKKAELKTTERISSNLLSLSGEKIHKSIENKRKLAQFSRNQELQADSIALEMLKQAGYDPFSLPRFLQSMAAYSLFRSIPGSQNAPLGFLITHPTTPQRIRLAIEKAHKISSANTGNTDRDAFLKSIDGMIFGGSPHTGFVQNNQFIHPQLGITFSVPQNFIIENSAHTVWASGPDKIAIRFDAIPHPAEISASEYLQSGWLAGLDKSSVHPFIIQGLPGAHARARNAQWQFDVVVILFNNHVLRFLTAAPHDSQNFAEIAEKTVQSFRFLSSSQLKKLKPLRIRIVRVQKGESVASLAKKMQNIPHNEKLFRILNSLSPSQALQTGAAVKIITQLEHHHHHH”, the “soluble on expression in E. coli” value was “not soluble”. With “MHVIDLSYFVKIYRSKNKHFSVNFLRHLHRAGDLHLSGTTRCIYEDVIMKKCLTLLIATVLSGISLTAYAAQPMSNLDSGQLRPAGTVSATGASNLSDLEDKLAEKAREQGAKGYVINSAGGNDQMLGTATIYKLEHHHHHH” the “soluble on expression in E. coli” value was “not soluble”. With “MHVSPFDWRYGSEEIRRLFTNEAIINAYLEVERALVCALEELGVAERGCCEKVNKASVSADEVYRLERETGHDILSLVLLLEQKSGCRYVHYGATSNDIIDTAWALLIRRALAAVKEKARAVGDQLASMARKYKTLEMVGRTHGQWAEPITLGFKFANYYYELYIACRQLALAEEFIRAKIGGAVGTMASWGELGLEVRRRVAERLGLPHHVITTQVAPRESFAVLASALALMAAVFERLAVEIRELSRPEIGEVVEGGGGSSAMPHKANPTASERIVSLARYVRALTHVAFENVALWHERDLTNSANERVWIPEALLALDEILTSALRVLKNVYIDEERITENLQKALPYILTEFHMNRMIKEGASRAEAYKKAKEVKALTFEYQKWPVERLIEDALSLKLC” the “soluble on expression in E. coli” value was “soluble”. With “MHWGVGFASSRPCVVDLSWNQSISFFGWWAGSEEPFSFYGDIIAFPLQDYGGIMAGLGSDPWWKKTLYLTGGALLAAAAYLLHELLVIRKQQEIDSKDAIILHQFARPNNGVPSLSPFCLKMETYLRMADLPYQNYFGGKLSAQGKMPWIEYNHEKVSGTEFIIDFLEEKLGVNLNKNLGPHERAISRAVTKMVEEHFYWTLAYCQWVDNLNETRKMLSLSGGGPFSNLLRWVVCHITKGIVKREMHGHGIGRFSEEEIYMLMEKDMRSLAGLLGDKKYIMGPKLSTLDATVFGHLAQAMWTLPGTRPERLIKGELINLAMYCERIRRKFWPEWHHDDDNTIYESEESSEGSKTHTPLLDFSFYSRTETFEDEGAENSFSRTPDTDFTGHSLFDSDVDMDDYTDHEQCK” the “soluble on expression in E. coli” value was “not soluble”. For “MIALGIEGTAWSLSIGVVDEEGVIALENDPYIPKEGGIHPREASQHHSERLPSLLSRVFEKVDKNSIDVVAFSQGPGMGPCLRVVATAARLLAIKLEKPLVGVNHCLAHVEVGRWQTGARKPVSLYVSGGNSQVIARRGNRYRVFGETLDIGIGNALDKLARHMGLKHPGGPKIEELAKKGQKYHFLPYVVKGMDFSFSGMVTAAQRLFDSGVRMEDVAFSFQETAFAMLTEVTERALAYLDLNEVLLVGGVAANKRLQEMLRIMCEDRGAKFYVPPKELAGDNGAMIAYTGLLMYKHGHQTPVEKSYVRPDFRIEDVEVNWD”, the “soluble on expression in E. coli” value was “soluble”. In the case of “MIARKRRARTIHSRYPIGIYGSIVMTDIAQLLGKDADNLLQHRCMTIPSDQLYLPGHDYVDRVMIDNNRPPAVLRNMQTLYNTGRLAGTGYLSILPVDQGVEHSAGASFAANPLYFDPKNIVELAIEAGCNCVASTYGVLASVSRRYAHRIPFLVKLNHNETLSYPNTYDQTLYASVEQAFNMGAVAVGATIYFGSEESRRQIEEISAAFERAHELGMVTVLWAYLRNSAFKKDGVDYHVSADLTGQANHLAATIGADIVKQKMAENNGGYKAINYGYTDDRVYSKLTSENPIDLVRYQLANCYMGRAGLINSGGAAGGETDLSDAVRTAVINKRAGGMGLILGRKAFKKSMADGVKLINAVQDVYLDSKITIA”, the “soluble on expression in E. coli” value is reported as “soluble”. In the case of “MIASLDELYHSELFFLPVMDENARLVGLEIIATFAAEDGAVRMPTELVAPRLSVEEQYCLFVEKLALLETCQHFFIQHKLIAWLNLPPAISDLLLLDSELFSRAARFPFLELAINENYPGLNQGKNNETLANLAMHFPLMLANFGAGEASTKAIFDGLFKRVMLDKNFIQQRAEMISFEPFMHAIVAQISSSCESLMIAGIDTEAMFARAAPLGFSAFQGGLWPPVPVSQLIKLVQR”, the “soluble on expression in E. coli” value is reported as “not soluble”. In the case of “MICNNQREFDNSLKCYQTALVTSQWTVRIRNLNWVLQEKVKSLYVEYQIWRGIDQTNKANPNTLRTNLDQVLAQLETFPTASASPIDSGSAGQLTPFHRSHFHPYKDNKRMRFPSNKEGGLCNSLLSSHYEWC”, the “soluble on expression in E. coli” value is reported as “not soluble”. For “MIDHNIRTGKAFFGRRKGKRLRNSQLVLIKKLFPTLDINLNNSVPLNLTSLFSRKVKEVRLEIGFGGGEHLLHEMKHFPQTGFIGIEPFINGMAKMLMSLEEHKQYQNQLRLYNDDATGLLDWLPNASLDGIDLFYPDPWPKKKHWKRRFINMKNLNRFARVLKTGKKFRFASDIESYVNWTLYHCSNHHSFEWEAKNPKDWKTPYTLWSGTRYEAKALREGRAPTYLTFIKK”, the “soluble on expression in E. coli” value was “not soluble”. In the case of “MIDIQGIKEALPHRYPMLLVDRVLEVSEDTIVAIKNVTINEPFFNGHFPQYPVMPGVVIMEALAQTAGVLELSKPENKGKLVFYAGMDKVKFKKQVVPGDQLVMTATFVKRRGTIAVVEAKAEVDGKLAASGTLTFAIGN”, the “soluble on expression in E. coli” value is reported as “soluble”. With “MIDITLPLTDIHRHLDGNIRAQTILDLGRQFNIALPAQTLETLIPHVQVTSTEPDLVSFLTKLDWGVKVLASLDACRRVAFENIEDAARNGLHYVELRFSPGYMAMAHQLPIAGVVEAVIDGVRDGCNTFGVEARLIGIMSRTFGEAACLQELDALLAHRENITALDLAGDELGFPGSLFLSHFNRARDAGWHITVHAGEAAGPESIWQAIRELGAERIGHGVKAVEDRALMDFLAQQRIGIESCLTSNIQTSTVASLADHPLKTFLEHGVLASLNTDDPAVQGVDIIHEYHVAAPAAGLSREQIRQAQINGLEIAFLSDSEKRALREKVAEA” the “soluble on expression in E. coli” value was “not soluble”. In the case of “MIDMVVLTKEKIIEIIEEKTGMSREKIEEEIRRIMEEDPHLSEQGAAALLAERLGIDLIEREETSLMKISDLYPGMDPREVNIIGRVLKKYPVREYTKKDGSIGRVASLVIYDDSGRARVVLWDGKVAEYYNKIEVGDVIKVLDAQVRESLSGLPELHINFRARIILNPEDPRVDSIPPLEEVRIATYTRKKIGDIEPGDRFIEIRGTIAKVYRVLTYDACPECKKKVDYDPGTGVWICPEHGEVEPIKMTILDFGLDDGTGYIRVTLFGDDAEELLGVSSEEIAEKIKELENSGLTTKEAARKLAEEEFYKIIGKEIVVRGNVIEDRFLGLILRASSWEEVDYRKEIENIKEELEKLGVMLEHHHHHH”, the “soluble on expression in E. coli” value is reported as “not soluble”. In the case of “MIDNPTPKSSMTFKELYDEWLLVYEKEVQNSTYYKTTRAFEKHVLPVIGSTKLSDFTPMELQNFRNDLSEKLKFARKLFGMVRKVFNHAALLSYIQANPALPVTSQGIKKKVEELEHHHHHH”, the “soluble on expression in E. coli” value is reported as “soluble”. With “MIDPVCGMKVDKNAKFKSTYNGKEYYFCSEHCKVEFDRNPIKYTR” the “soluble on expression in E. coli” value was “not soluble”. With “MIDTPDLETRAAPEDHHALRLWLRMLTCCNLIESEIRSRLRTEFDTTLPRFDLMAQLQRAPKGMKMGELSRHMMVTNGNITGITDQLEKEGLVVRTKVESDRRSSVLKLTPQGKRTFARMARAHESWVTGMLDDLPEASRHAMYKALGELKLQVVAHRALAQRDGAS” the “soluble on expression in E. coli” value was “not soluble”. In the case of “MIEIATSPATTTLVIAGDLDLAERDQFPEIAARVVGLRRQLLVIDMCRVTFMDSTGAAFLISLADSGRKRGGATVLRGCDDRDLFVLEVCGALELFRIDPDHACAPKTPATGVPAVEERPGRTR”, the “soluble on expression in E. coli” value is reported as “not soluble”.
